Data from patent publication US20180346602A1.
Positions count from the first letter of the chain named. One block for each binder: values may come before it.

Key:
[1] = biological target: anti-VEGF/ANG2 antibody (IgG1 subclass with mutations P329G/L234A/L235A/I253A/H310A/H435A) [IgG part: P01857]; test: bridging ELISA; biotinylated and digoxigenylated anti-VEGF/ANG2 antibody bridged by M1.3.17 at 31.25 ng/mL
[2] = biological target: anti-VEGF/ANG2 antibody (IgG1 subclass with mutations P329G/L234A/L235A/I253A/H310A/H435A) [IgG part: P01857]; test: sandwich ELISA in serum; capture M1.3.17, tracer M1.7.24; anti-VEGF/ANG2 antibody 39.0625 ng/mL
[3] = biological target: cytokine (IL-2) antibody conjugate with the mutations P329G, L234A, L235A, I253A, H310A, and H435A; test: sandwich ELISA in serum; capture anti-IL2 antibody, tracer M1.7.24; conjugate 625 ng/mL
[4] = biological target: cytokine (IL-2) antibody conjugate with the mutations P329G, L234A, L235A, I253A, H310A, and H435A; test: sandwich ELISA in serum; capture anti-IL2 antibody, tracer M1.7.24; conjugate 156.25 ng/mL
[5] = biological target: anti-VEGF/ANG2 antibody (IgG1 subclass with mutations P329G/L234A/L235A/I253A/H310A/H435A) [IgG part: P01857]; test: sandwich ELISA in serum; capture M1.7.10-Bi, tracer M1.7.24-Dig; anti-VEGF/ANG2 antibody 5 ng/mL
[6] = biological target: anti-VEGF/ANG2 antibody (IgG1 subclass with mutations P329G/L234A/L235A/I253A/H310A/H435A) [IgG part: P01857]; test: sandwich ELISA in serum; capture M1.7.10-Bi, tracer M1.7.24-Dig; anti-VEGF/ANG2 antibody 0.01953125 ng/mL
[7] = biological target: anti-VEGF/ANG2 antibody (IgG1 subclass with mutations P329G/L234A/L235A/I253A/H310A/H435A) [IgG part: P01857]; test: sandwich ELISA in serum; capture M1.7.10-Bi, tracer M1.7.24-Dig; anti-VEGF/ANG2 antibody 1.25 ng/mL
[8] = biological target: cytokine (IL-2) antibody conjugate with the mutations P329G, L234A, L235A, I253A, H310A, and H435A; test: sandwich ELISA in serum; capture anti-IL2 antibody, tracer M1.7.24; conjugate 1250 ng/mL

signal [OD405 nm] [1]: 0.054 OD405 nm | signal [OD405 nm] [2]: 0.233 OD405 nm
B1: anti-variant (human) Fc-region antibody M1.3.17 (antibody, V domains shown)
VH: EVKLLESGGGLVQPGGSLKLSCAASGIDFRRYWMNWVRQAPGKGLEWIGEIDPDSSTINYTPSLKDKFIISRDNAKNTMYLQMRKVRSEDTALYYCARPYDYGAWFAYWGQGTLVTVSA
VL: QAVVTQESALTTSPGETVTLTCRSTTGAVTTSNYANWVQEKPDHLFTGLIGGTNKRAPGVPARFSGSLIGDKAALTITGAQTEDEAIYFCALWYSDHWVFGGGTKLTVL

signal [OD405 nm] [3]: 0.811 OD405 nm | signal [OD405 nm] [4]: 0.253 OD405 nm | signal [OD405 nm] [5]: 2.17 OD405 nm | signal [OD405 nm] [6]: 0.057 OD405 nm | signal [OD405 nm] [7]: 0.847 OD405 nm | signal [OD405 nm] [8]: 1.46 OD405 nm
B2: anti-variant (human) Fc-region antibody M1.7.24 (antibody, V domains shown)
VH: B1 VH with I27F, R30S, D52T, M79L, R84I, A97V, Y108S
VL: B1 VL with T25S, D96N
